Results published in publication PMC10998613.
Where two headings read alike, the source gives them in different places.

B1: CXCR4-AcGFP1 / CXCR4-mCherry (C-X-C motif chemokine receptor 4 with a C-terminal fluorescent protein), P61073 1-352 (receptor)
chain: MEGISIYTSDNYTEEMGSGDYDSMKEPCFREENANFNKIFLPTIYSIIFLTGIVGNGLVILVMGYQKKLRSMTDKYRLHLSVADLLFVITLPFWAVDAVANWYFGNFLCKAVHVIYTVNLYSSVLILAFISLDRYLAIVHATNSQRPRKLLAEKVVYVGVWIPALLLTIPDFIFANVSEADDRYICDRFYPNDLWVVVFQFQHIMVGLILPGIVILSCYCIIISKLSHSKGHQKRKALKTTVILILAFFACWLPYYIGISIDSFILLEIIKQGCEFENTVHKWISITEALAFFHCCLNPILYAFLGAKFKTSAQHALTSVSRGSSLKILSKGKRGGHSSVSTESESSSFHSS

What was measured:
Test in all cases: PIE-FCCS
[1] = molecular target: β2AR-AcGFP1 / β2AR-mCherry (β2-adrenergic receptor with a C-terminal fluorescent protein) (human) (UniProt P07550)
[2] = molecular target: β2AR-AcGFP1 / β2AR-mCherry (β2-adrenergic receptor with a C-terminal fluorescent protein) (human) (UniProt P07550); remark: listed apart in the source
[3] = molecular target: T1, CXCR4-AcGFP1 / CXCR4-mCherry (C-X-C motif chemokine receptor 4 with a C-terminal fluorescent protein) (human), P61073; details: remark: other sources report otherwise
T1 chain: B1 chain

[4] = molecular target: T1, CXCR4-AcGFP1 / CXCR4-mCherry (C-X-C …); details: remark: other sources report otherwise

| Molecule | fc [1] | fc [2] | median fc [3] | mean fc [4] | median fc [4] |
| --- | --- | --- | --- | --- | --- |
| β2AR-AcGFP1 / β2AR-mCherry (β2-adrenergic receptor with a C-terminal fluorescent protein) (from UniProt P07550 1-413) | 0.13 | 0.11 | – | – | – |
| B1 | – | – | 0.18 | 0.39 | 0.31 |
